Test results reported in patent US20180355044A1 (CELLERANT THERAPEUTICS, published 2018).
Blank lines part the entries; values can stand above or below the binder they belong to.

Experiments:
[1] = molecular target: T1, C type Lectin Like molecule 1 (CLL-1), human, on cells (human, UniProt Q5QGZ9 1-265); assay: competition by flow cytometry on 293-CLL1 cells; Alexa488-labelled ChiM31 is displaced by the unlabelled antibody (half-maximal displacement, headed EC50 on the sheet)
T1 construct: whole, on cells; also called CLEC12A; DCAL-2
T1 sequence (looked up): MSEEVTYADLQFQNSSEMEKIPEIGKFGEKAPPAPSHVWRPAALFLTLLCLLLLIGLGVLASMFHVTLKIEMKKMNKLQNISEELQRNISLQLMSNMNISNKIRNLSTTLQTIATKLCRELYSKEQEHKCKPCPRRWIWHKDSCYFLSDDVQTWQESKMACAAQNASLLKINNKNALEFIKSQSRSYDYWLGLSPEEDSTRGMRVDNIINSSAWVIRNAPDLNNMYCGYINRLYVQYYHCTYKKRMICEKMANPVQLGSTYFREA
Procedure: FIG. 10 is an […] of competitive binding to 293CLL1 cells. ChiM31 was labelled with Alex488. Binding of ChiM31-Alex488 antibody in the presence of ChiM31, HuM31 and mouse M31 starting at 30 μg/ml and serial 3-fold dilutions, was analyzed. Absorbance values MFI (Y-axis) are plotted at each antibody concentration tested (X-axis) in the figure. IC₅₀ values were calculated using GraphPad Prism.
Referring to FIG. 10, ChiM31 was labeled with Alexa488. 293-CLL1 cells were pre-incubated with 1 μg of labeled ChiM31, and then completed with various amount of ChiM31 and HuM31. FACS were performed and data were analyzed and EC50 were calculated.

CLL-1 bearing a His Tag [2] = molecular target: T2, CLL-1 bearing a His Tag; assay: ELISA on His-tagged CLL-1, purified antibody
T2 construct: also called CLL1 His Tag antigen; His Tag antigen; not shown: The exact limits of the construct are not described
T2 chain: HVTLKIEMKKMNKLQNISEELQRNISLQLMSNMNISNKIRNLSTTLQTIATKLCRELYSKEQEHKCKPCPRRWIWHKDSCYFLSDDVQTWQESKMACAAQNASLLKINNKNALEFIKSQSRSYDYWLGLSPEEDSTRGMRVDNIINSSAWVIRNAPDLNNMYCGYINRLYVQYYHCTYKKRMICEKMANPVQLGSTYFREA
Procedure: FIG. 8 is an ELISA analysis of the binding of purified ChM31 (SEQ ID NO:14/SEQ ID NO:10), HuM31-VH2/VL2 (SEQ ID NO:16/SEQ ID NO:12), HuM31-VH3/VL2 (SEQ ID NO:17/SEQ ID NO:12), and HuM31-VH4/VL2 (SEQ ID NO:18/SEQ ID NO:12), antibodies to CLL-1 bearing a His Tag. Each antibody was tested at various concentrations, starting at 1 μg/ml and serial 2-fold dilutions. Absorbance values (Y-axis) are plotted at each antibody concentration tested (X-axis) in the figure.
Referring to FIG. 8, each antibody was tested at various concentrations, starting at 1 μg/mL and serial 2-fold dilutions. Absorbance values (Y-axis) are plotted at each antibody concentration tested (X-axis) in the figure.

CLL-1 bearing a His Tag [3] = molecular target: T2, CLL-1 bearing a His Tag; assay: competitive ELISA on His-tagged CLL-1; binding of mouse M31 is detected, the named antibody is the competitor
Procedure: FIG. 9 is an ELISA analysis of competitive binding affinity of ChM31 (SEQ ID NO:14/SEQ ID NO:10), HuM31-VH1/VL2 (SEQ ID NO:15/SEQ ID NO:12), HuM31-VH2/VL2 (SEQ ID NO:16/SEQ ID NO:12), HuM31-VH3/VL2 (SEQ ID NO:17/SEQ ID NO:12), and HuM31-VH4/VL2 (SEQ ID NO:18/SEQ ID NO:12), antibodies to CLL-1 bearing a His Tag. Binding of mouse M31 antibody in the presence of ChM31, HuM31-VH2/VL2, HuM31-VH3/VL2 or HuM31-VH4/VL2 antibody, starting at 25 μg/ml and serial 3-fold dilutions, was analyzed. Absorbance values (Y-axis) are plotted at each antibody concentration tested (X-axis) in the figure. IC₅₀ values were calculated using GraphPad Prism.
Referring to FIG. 9, binding of mouse M31 antibody in the presence of ChM31, HuM31-VH2/VL2, HuM31-VH3/VL2 or HuM31-VH4/VL2 antibody, starting at 25 μg/mL and serial 3-fold dilutions, was analyzed. Absorbance values (Y-axis) are plotted at each antibody concentration tested (X-axis) in the figure. IC50 values were calculated using GraphPad Prism.

[4] = molecular target: T1, C type Lectin Like molecule 1 (CLL-1), …; assay: cell-based or functional assay
[5] = molecular target: T1, C type Lectin Like molecule 1 (CLL-1), …; assay: cell-based or functional assay; remark: listed apart in the source
[6] = molecular target: T1, C type Lectin Like molecule 1 (CLL-1), …; assay: cell-based or functional assay; remark: listed apart in the source
[7] = molecular target: T1, C type Lectin Like molecule 1 (CLL-1), …; assay: flow cytometry on HEL92.1.7-CLL1 cells, MFI of C6-CLT-D202 ADC over MFI of control C0-CLT-D202 ADC
[8] = molecular target: T1, C type Lectin Like molecule 1 (CLL-1), …; assay: flow cytometry on AML5 cells (express CLL-1), MFI of C6-CLT-D202 ADC over MFI of control C0-CLT-D202 ADC
[9] = molecular target: T1, C type Lectin Like molecule 1 (CLL-1), …; assay: flow cytometry on HL-60 cells (express CLL-1), MFI of C6-CLT-D202 ADC over MFI of control C0-CLT-D202 ADC
[10] = molecular target: T1, C type Lectin Like molecule 1 (CLL-1), …; assay: flow cytometry on U937 cells (listed as CLL-1 expressing in paragraph 160), MFI of C6-CLT-D202 ADC over MFI of control C0-CLT-D202 ADC
[11] = molecular target: T1, C type Lectin Like molecule 1 (CLL-1), …; assay: flow cytometry on AML2 cells, MFI of C6-CLT-D202 ADC over MFI of control C0-CLT-D202 ADC; CLL-1 expression of this line not stated
[12] = molecular target: T1, C type Lectin Like molecule 1 (CLL-1), …; assay: flow cytometry on PL21 cells, MFI of C6-CLT-D202 ADC over MFI of control C0-CLT-D202 ADC; CLL-1 expression of this line not stated
[13] = molecular target: T1, C type Lectin Like molecule 1 (CLL-1), …; assay: flow cytometry on EOL-1 cells, MFI of C6-CLT-D202 ADC over MFI of control C0-CLT-D202 ADC; CLL-1 expression of this line not stated
[14] = molecular target: T1, C type Lectin Like molecule 1 (CLL-1), …; assay: flow cytometry on KG-1a cells, MFI of C6-CLT-D202 ADC over MFI of control C0-CLT-D202 ADC; CLL-1 expression of this line not stated
[15] = molecular target: T1, C type Lectin Like molecule 1 (CLL-1), …; assay: flow cytometry on SHI-1 cells, MFI of C6-CLT-D202 ADC over MFI of control C0-CLT-D202 ADC; CLL-1 expression of this line not stated
[16] = molecular target: T1, C type Lectin Like molecule 1 (CLL-1), …; assay: flow cytometry on HNT-34 cells, MFI of C6-CLT-D202 ADC over MFI of control C0-CLT-D202 ADC; CLL-1 expression of this line not stated

- EC50 [1]: 1.77 µg/mL
B1: Hu M31 (antibody, V domains shown)
VH: QVQLVQSGAEVKKPGASVKVSCKASGYTFTSYVMHWVRQAPGQRLEWIGYINPYNDGTKYNEKFKGKATITSDTSASTAYMELSSLRSEDTAVYYCARPIYFDNDYFDYWGQGTLVTVSS
VL: DIVMTQSPDSLAVSLGERATINCRASESVDSYGNSFMHWYQQKPGQPPKLLIYLASNLESGVPDRFSGSGSGTDFTLTISSLQAEDVAVYYCQQNNYDPWTFGGGTKVEIK

- decrease in IC50, TF1-CLL1 against TF1 cells [4]: ~1000 fold
- relative MFI C6/C0 [7]: 26.1 ratio
- relative MFI C6/C0 [8]: 15 ratio
- relative MFI C6/C0 [9]: 20 ratio
- relative MFI C6/C0 [10]: 14.7 ratio
- relative MFI C6/C0 [11]: 13 ratio
- relative MFI C6/C0 [12]: 14.7 ratio
- relative MFI C6/C0 [13]: 20.5 ratio
- relative MFI C6/C0 [14]: 1.3 ratio
- relative MFI C6/C0 [15]: 1.4 ratio
- relative MFI C6/C0 [16]: 5.8 ratio
B6: C6-CLT-D202 ADC (humanized, cys-substituted at position 239 anti-CLL1 antibody C6-S239C-CYSMAB conjugated to CLT-D202) (antibody, V domains shown)
VH: EVQLVQSGAEVKKPGASVKMSCKASGYTFTSYFIHWVRQAPGQGLEWIGFINPYNDGSKYAQKFQGRATLTSDKSTSTVYMELSSLRSEDTAVYYCTRDDGYYGYAMDYWGQGTLVTVSS
VL: DIQMTQSPSSLSASVGDRVTLTCRATQELSGYLSWLQQKPGKAIKRLIYAASTLDSGVPSRFSGNRAGTDYTLTISSLQPEDFATYYCLQYAIYPYTFGQGTKLEIK
modifications: S239C in the heavy chain constant region (constant region sequence not given); CLT-D202 drug-linker conjugated to the engineered Cys 239; drug to antibody ratio 1.7
notes: Only variable regions are printed; it carries S239C; also called C6-D202; CLL1-ADC
- IC50, killing of proliferating AML-5 cells [4]: 0.03 µg/mL
- IC50, killing of quiescent AML-5 cells [4]: 0.02 µg/mL
- cell killing of HL-60 cells, relative to the control ADC [4]: > 500 fold
- IC50, cytotoxicity on TF1-CLL1 cells [5]: 0.008 µg/mL
- IC50, cytotoxicity on AML2 cells [6]: 0.003 µg/mL
- IC50, cytotoxicity on AML5 cells [6]: 0.013 µg/mL
- IC50, cytotoxicity on EOL-1 cells [6]: 0.0137 µg/mL
- IC50, cytotoxicity on HEL92.1.7-CLL1 cells [6]: 0.017 µg/mL
- IC50, cytotoxicity on HL-60 cells [6]: 0.011 µg/mL
- IC50, cytotoxicity on HNT-34 cells [6]: 3.5 µg/mL
- IC50, cytotoxicity on KG-1a cells [6]: 82.8 µg/mL
- IC50, cytotoxicity on PL21 cells [6]: 0.199 µg/mL
- IC50, cytotoxicity on SHI-1 cells [6]: 5.67 µg/mL
- IC50, cytotoxicity on U937 cells [6]: 11.7 µg/mL

Further lines, the binder ahead of its results:

B2: ChM31 (antibody, V domains shown)
VH: EVQLQQSGPELVKPGASVKMSCKASGYTFTSYVMHWVKQKPGQGLEWIGYINPYNDGTKYNEKFKGKATLTSDTSSSTAYMELNSLTSEDSAVYFCARPIYFDNDYFDYWGQGTTLKVSS
VL: TIVLTQSPASLAVSLGQRATISCRASESVDSYGNSFMHWYQQKPGQPPKLLIYLASNLESGVPARFSGSGSRTDFTLTIDPVEADDAATYYCQQNNYDPWTFGGGTKLEIK
notes: chimeric M31; also called Chi M31; ChiM31
- EC50 (read off the curve) (CLL-1 bearing a His Tag [2]): ~0.05 µg/mL
- IC50 (read off the curve) (CLL-1 bearing a His Tag [3]): ~0.6 µg/mL
- EC50 [1]: 0.71 µg/mL

B3: HuM31-VH4/VL2 (antibody, V domains shown)
VH: QVQLVQSGAEVKKPGASVKVSCKASGYTFTSYVMHWVRQAPGRRLEWIGYINPYNDGTKYNEKFKGRVTITSDTSASTAYMELSSLRSEDTAVYYCARPIYFDNDYFDYWGQGTLVTVSS
VL: DIVMTQSPDSLAVSLGERATINCRASESVDSYGNSFMHWYQQKPGQPPKLLIYLASNLESGVPARFSGSGSGTDFTLTIDPVEADDAATYYCQQNNYDPWTFGGGTKLEIK
notes: humanized M31 variant
- EC50 (read off the curve) (CLL-1 bearing a His Tag [2]): ~0.04 µg/mL

B4: HuM31-VH2/VL2 (antibody, V domains shown)
VH: QVQLVQSGAEVKKPGASVKVSCKASGYTFTSYVMHWVRQAPGQRLEWIGYINPYNDGTKYNEKFKGRATLTSDTSTSTAYMELRSLRSDDTAVYYCARPIYFDNDYFDYWGQGTTVTVSS
VL: DIVMTQSPDSLAVSLGERATINCRASESVDSYGNSFMHWYQQKPGQPPKLLIYLASNLESGVPARFSGSGSGTDFTLTIDPVEADDAATYYCQQNNYDPWTFGGGTKLEIK
notes: humanized M31 variant
- EC50 (read off the curve) (CLL-1 bearing a His Tag [2]): ~0.06 µg/mL

B5: HuM31-VH3/VL2 (antibody, V domains shown)
VH: QVQLVQSGAEVKKPGASVKVSCKASGYTFTSYVMHWVRQAPGRRLEWIGYINPYNDGTKYNEKFKGKATITSDTSASTAYMELSSLRSEDTAVYYCARPIYFDNDYFDYWGQGTLVTVSS
VL: DIVMTQSPDSLAVSLGERATINCRASESVDSYGNSFMHWYQQKPGQPPKLLIYLASNLESGVPARFSGSGSGTDFTLTIDPVEADDAATYYCQQNNYDPWTFGGGTKLEIK
notes: humanized M31 variant
- EC50 (read off the curve) (CLL-1 bearing a His Tag [2]): ~0.04 µg/mL
